Assay results published in PMC10953500.

How the values were obtained:
[1] = biological target: receptor binding domain (RBD) of the SARS-CoV-2 spike protein with C-terminal 6xHis-tag (SARS-CoV-2) (UniProt P0DTC2); assay: SPR
[2] = biological target: recombinant CD89 (Fc-alpha receptor, FcαRI) with C-terminal His-tag (UniProt P24071); assay: SPR
recombinant CD89 (Fc-alpha receptor, FcαRI) with C-terminal His-tag, sequence (P24071 22-227): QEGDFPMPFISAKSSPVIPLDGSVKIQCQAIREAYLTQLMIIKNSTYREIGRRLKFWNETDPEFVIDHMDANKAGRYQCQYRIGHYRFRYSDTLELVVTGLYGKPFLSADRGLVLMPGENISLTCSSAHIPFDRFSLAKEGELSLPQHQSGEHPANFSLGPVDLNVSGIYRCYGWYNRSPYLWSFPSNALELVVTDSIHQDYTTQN

COVA2-15 IgA1 produced in HEK293-6E cells ("HEK"), sequence (P01876 whole entry, looked up, tested part not stated): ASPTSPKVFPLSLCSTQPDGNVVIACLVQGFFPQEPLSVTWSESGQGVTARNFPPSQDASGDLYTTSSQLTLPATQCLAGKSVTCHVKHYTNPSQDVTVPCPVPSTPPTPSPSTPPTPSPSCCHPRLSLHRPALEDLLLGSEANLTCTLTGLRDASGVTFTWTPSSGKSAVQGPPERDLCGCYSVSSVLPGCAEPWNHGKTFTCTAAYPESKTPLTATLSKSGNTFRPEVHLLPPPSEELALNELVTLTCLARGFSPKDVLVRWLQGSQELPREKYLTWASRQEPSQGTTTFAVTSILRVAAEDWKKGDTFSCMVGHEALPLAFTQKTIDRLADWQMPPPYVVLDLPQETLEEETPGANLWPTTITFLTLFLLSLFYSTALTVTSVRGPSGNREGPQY
COVA2-15 IgA1 produced in N. benthamiana wildtype ("WT"), sequence (P01876 whole entry, looked up, tested part not stated): as above
COVA2-15 IgA1 produced in the H10-KO line co-infiltrated with GalNAc-T2 and C1GalT1 ("H10+O"), sequence (P01876 whole entry, looked up, tested part not stated): as above
COVA2-15 IgA1 produced in the NbP4H10 knockout line pB109-1C ("H10-KO"), sequence (P01876 whole entry, looked up): as the sequence (P01876 whole entry, looked up, tested part not stated) above

Substance	Kd [1] [nM]	Kd [2] [nM]
COVA2-15 IgA1 produced in the H10-KO line co-infiltrated with GalNAc-T2 and C1GalT1 ("H10+O") (from UniProt P01876)	1.25	31.7
COVA2-15 IgA1 produced in the NbP4H10 knockout line pB109-1C ("H10-KO") (from UniProt P01876)	1.31	61.3
COVA2-15 IgA1 produced in N. benthamiana wildtype ("WT") (from UniProt P01876)	1.53	66.6
COVA2-15 IgA1 produced in HEK293-6E cells ("HEK") (from UniProt P01876)	0.85	36.7
